PMC5737841
Where a chain is given by its changes, count along the chain named.

Key:
Experiment in all cases: UV crosslinking
SisCsx1-M3 = target: T1, SisCsx1-M3 (Sulfolobus islandicus Rey15A, UniProt F0NE21 1-454, D50L;S51L)
T1 sequence: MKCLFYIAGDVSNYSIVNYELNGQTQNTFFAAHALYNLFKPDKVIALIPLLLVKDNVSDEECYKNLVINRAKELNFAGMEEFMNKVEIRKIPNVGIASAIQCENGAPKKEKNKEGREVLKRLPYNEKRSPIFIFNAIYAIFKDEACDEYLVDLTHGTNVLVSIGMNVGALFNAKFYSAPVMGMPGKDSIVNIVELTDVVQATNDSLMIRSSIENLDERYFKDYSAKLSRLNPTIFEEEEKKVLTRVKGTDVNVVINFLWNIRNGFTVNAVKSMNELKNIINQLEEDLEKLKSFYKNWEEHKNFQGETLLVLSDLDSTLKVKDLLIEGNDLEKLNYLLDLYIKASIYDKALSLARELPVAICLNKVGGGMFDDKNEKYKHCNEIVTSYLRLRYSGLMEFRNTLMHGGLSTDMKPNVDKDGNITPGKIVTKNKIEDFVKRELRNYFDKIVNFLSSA

SisCsx1-M2 = target: T2, SisCsx1-M2 (Sulfolobus islandicus Rey15A, UniProt F0NE21 1-454, G95L;A97L;A99L)
T2 sequence: T1 sequence with L50D, L51S, G95L, A97L, A99L

SisCsx1-M6 = target: T3, SisCsx1-M6 (Sulfolobus islandicus Rey15A, UniProt F0NE21 1-454, H155L)
T3 sequence: T1 sequence with L50D, L51S, H155L

Measured: binding result

CGCAAAAAAA (ssRNA) [S3A7]
no binding: SisCsx1-M3 | SisCsx1-M2 | SisCsx1-M6
